From publication PMC11357854

Columns and labels:
PDK1 1-556 = PDK1 1-556 (UniProt O15530); test: AlphaScreen GST-PRK2 / His-PDK1; settings: reference: wild type; sites T958
[1] = biological target: PDK1 catalytic domain, 50-359 (UniProt O15530); test: AlphaScreen GST-PRK2 / His-PDK1; settings: reference: wild type; sites T958

Substance	binding against the reference (PDK1 1-556)	binding against the reference [1]
PRK2 (PKN2) 1-984 (from UniProt Q16513) T958A	stronger	stronger
PRK2 (PKN2) catalytic domain, 643-984 (from UniProt Q16513) T958A		stronger
